From IntAct's records for PubMed 20126259

B1: Serine/threonine-protein kinase RAD53 (Saccharomyces cerevisiae), P22216 (parent)
chain: MENITQPTQQSTQATQRFLIEKFSQEQIGENIVCRVICTTGQIPIRDLSADISQVLKEKRSIKKVWTFGRNPACDYHLGNISRLSNKHFQILLGEDGNLLLNDISTNGTWLNGQKVEKNSNQLLSQGDEITVGVGVESDILSLVIFINDKFKQCLEQNKVDRIRSNLKNTSKIASPGLTSSTASSMVANKTGIFKDFSIIDEVVGQGAFATVKKAIERTTGKTFAVKIISKRKVIGNMDGVTRELEVLQKLNHPRIVRLKGFYEDTESYYMVMEFVSGGDLMDFVAAHGAVGEDAGREISRQILTAIKYIHSMGISHRDLKPDNILIEQDDPVLVKITDFGLAKVQGNGSFMKTFCGTLAYVAPEVIRGKDTSVSPDEYEERNEYSSLVDMWSMGCLVYVILTGHLPFSGSTQDQLYKQIGRGSYHEGPLKDFRISEEARDFIDSLLQVDPNNRSTAAKALNHPWIKMSPLGSQSYGDFSQISLSQSLSQQKLLENMDDAQYEFVKAQRKLQMEQQLQEQDQEDQDGKIQGFKIPAHAPIRYTQPKSIEAETREQKLLHSNNTENVKSSKKKGNGRFLTLKPLPDSIIQESLEIQQGVNPFFIGRSEDCNCKIEDNRLSRVHCFIFKKRHAVGKSMYESPAQGLDDIWYCHTGTNVSYLNNNRMIQGTKFLLQDGDEIKIIWDKNNKFVIGFKVEINDTTGLFNEGLGMLQEQRVVLKQTAEEKDLVKKLTQMMAAQRANQPSASSSSMSAKKPPVSDTNNNGNNSVLNDLVESPINANTGNILKRIHSVSLSQSQIDPSKKVKRAKLDQTSKGPENLQFS
partner: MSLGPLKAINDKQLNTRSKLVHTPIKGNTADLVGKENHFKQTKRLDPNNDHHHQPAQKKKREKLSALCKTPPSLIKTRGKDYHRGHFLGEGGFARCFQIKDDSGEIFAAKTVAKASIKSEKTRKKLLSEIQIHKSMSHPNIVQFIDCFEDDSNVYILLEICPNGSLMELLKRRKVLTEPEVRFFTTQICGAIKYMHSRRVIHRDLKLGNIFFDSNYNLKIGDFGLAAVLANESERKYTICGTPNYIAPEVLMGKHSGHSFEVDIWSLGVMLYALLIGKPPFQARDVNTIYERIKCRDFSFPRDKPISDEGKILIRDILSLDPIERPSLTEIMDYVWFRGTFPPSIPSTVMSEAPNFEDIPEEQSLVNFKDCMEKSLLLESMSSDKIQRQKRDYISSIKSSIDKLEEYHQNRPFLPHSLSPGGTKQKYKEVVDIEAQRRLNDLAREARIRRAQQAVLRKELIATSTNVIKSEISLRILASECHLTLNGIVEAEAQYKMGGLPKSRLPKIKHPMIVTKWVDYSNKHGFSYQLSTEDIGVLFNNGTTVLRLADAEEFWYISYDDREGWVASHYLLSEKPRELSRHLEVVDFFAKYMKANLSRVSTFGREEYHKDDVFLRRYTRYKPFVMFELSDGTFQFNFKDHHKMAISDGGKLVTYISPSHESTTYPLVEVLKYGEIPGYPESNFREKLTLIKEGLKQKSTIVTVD

Variants of: B1
Settings: with cdc5_yeast CDC5, P32562

| Variant | effect of a mutation on the interaction |
| --- | --- |
| R70A;R605A | disrupting interaction |
